Data: the supplement of paper PMC9170038

Test system: K4 kissing-loop RNA reporter
Assay: apparent KD of K4 kissing-loop reporter; higher = weaker reporter binding
Details: Eterna round: R107
Description: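 RNA-MaP round R107: designed RNA switches with theophylline, tryptophan, arginine or FMN aptamers are transcribed on-chip within common flanks. They are titrated with a labelled K4 kissing-loop RNA reporter in RNA-MaP buffer (100 mM Tris pH 7.5, 80 mM KCl, 4 mM MgCl2), without ligand or with the indicated ligand. Median apparent KD per design.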

[1] = input ligand: theophylline 20 uM
[2] = input ligand: tryptophan 2.4 mM
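Also: bound reporter read as fluorescence of individual clusters on recovered sequencing chips by microscopy, with normalized cluster intensities fitted with a binding model.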

Row | Sequence | apparent KD of K4 kissing-loop reporter (input ligand: FMN 200 uM) [nM] | apparent KD of K4 kissing-loop reporter (input ligand: arginine 13.2 mM) [nM] | apparent KD of K4 kissing-loop reporter (input ligand: none) [nM] | apparent KD of K4 kissing-loop reporter [1] [nM] | apparent KD of K4 kissing-loop reporter [2] [nM]
1 | CAUGUGUCUGGAAGGAGCGCGGGUUGGUUAAACACUGUCGCGGGCCAGUGAUGUUGGAAUCCGCAGGUAGGUCGCCAGCCACUUG [Araton] | 284 | 476 | 350 | 533 | 460
2 | AAGCAGUCUCUUGUAAUCAUCGAAGAUGAACGAGGACCGGUACGGCCGCCACUCGGAGUGAUGUUCCGAAGACUGCAAAAUAAAA [MatMod 16 - Jieux - Exclusion - Tryptophan A] | 650 | 494 | 676 | 873 | 219
3 | UACUAUAGUGAUGUUAUAGAUAAACCAGAUACCAGUGUAACAUAACACCCUUGGCAGCUGAUGAGGGAAAAUAUAAAUGUGUAUU [AstrosSSTHe-A#4newdesignED10.09] | 196 | 204 | 198 | 197 | 197
4 | GAGAAUCUCACGGCCGCCACUCACCUGUUAAUUGACAUCGACGGCCUCGACCAGUGAUGUUGUGUGAGGACCGGGUGUCUCGUGU [theeternabot_exclusion_KL_Trp_B_32] | 647 | 519 | 702 | 562 | 423
5 | GUAGUGAUGUUACGAAUAUUCCAUCAUAGAGAGGAUAUUGUUCCUUCGAGAAGGUUCUGAGAAUUAAAAUUUAAUAAAAUGAAGG [Exclusion FMN A GF 1] | 246 | 302 | 277 | 357 | 160
6 | UGUACCGAGUCAGGAUAUGGCGUCGAAAGACGAAUCUUAGUGAUGUUAGGGAUCUGCGAAAGCAGUCUAGAAGGGACUUGGUACU [FmnBS 26 U37+U68] | 396 | 372 | 439 | 574 | 462
7 | GGCGCUGCCUGUGCCGCCCUCCUCGUCCCUCGAGGACCGGUACGGCCGCCACUCGAGUGAUGUUCGGGUAGCCCUCCCUGCCAGC [BDazzled - #23 Exc. Tryptophan A] | 585 | 407 | 567 | 511 | 340
8 | AGUGCACUGUCAGGAUAUAUACAGUGAUGUUGUGUAUGUCAGCAAGUCAAAGACUUGCUAUUUUGUAUAGAAGGGACUGUGUACA [whbob_Ex_FMNB__2th222] | 574 | 258 | 294 | 276 | 286
9 | UGCAGUGAUGUUGCUAUUUUUCUUGAUUAACGAGGACCGGUACGGCCGCCACUCGAUUUCUCUCUAAUCCAGUAUGUUGUUUAAU [whbob_EX_Tryp_A_t4] | 114 | 137 | 114 | 143 | 86.1
10 | AAAUAAAGCAGUCACCCAGUGAUGUUGGAAGGAGCGUGCGAAAGCACAGGUAGGUCGCCAAAAUAAAAGUGGCUGCGGCAAAGCC [#SwitchBubble 24 #K4Early] | 627 | 283 | 492 | 338 | 222
11 | AGAAACUUGUAUGUCGGCCCUGCGCGCGAUACCAGCCAAAUGGAUGGCCCUUGGCAGCGCAGCGAGUGAUGUUCGCCCGGCUGAC [Exclusion Theophylline A GF 21] | 77 | 108 | 95.9 | 110 | 65.7
12 | ACAGUCGGCUGUGAUACCAGUCGUAUAACAACAUGUUGCAGUGAUGUUGCGAGAUAGGAUGACCCUUGGCAGCACUCAGUACGAC [Same State Theophylline B GF11] | 324 | 101 | 248 | 328 | 150
13 | CCCUCACGAGUGAUGUUCGUAGGGUACAGUCAGGAUAUCAUGCGGUUGAGAAGGGACAGAGAGGGCGGCCACGGGUUGCUCAUCU [Tiongequ] | 187 | 288 | 372 | 435 | 390
14 | GGAUAGGAUAGAGGAUAUGGGCUAGGCAAGGAUAACUUGUCUAGCAAAUCCAUGAGGAGUGAUGUUCCAGAAGGCUGUCCUAUCG [MatMod 1 - Jieux - Exclusion - FMN B] | 733 | 160 | 162 | 148 | 158
15 | AAAAUAAAAGGUCACCCAGUGAUGUUGGAAGGAGCGUGCGAAAGCACAGGUAGGUCGCCAACCUAAAAGUGACCAGGGAAACCCA [#SwitchBubble 7 #K4Early] | 594 | 253 | 171 | 183 | 276
16 | GGAUAGGACAGAGGAUAUGGUAGUGAUGUUACCAAACUGGUUAUCAAUGUUAGAAAAUUGACAAAUCCAGAAGGCUGUCCUAUCG [KL-XFMN-B14] | 198 | 60.7 | 66.4 | 54.8 | 62
17 | GUAGGAUGAGGAGGAGGAUGAAUUACUGAAGGAGCGCAUAUUUAUGCAGGUAGGUCGCGGUAAAGAAGUAUAGUGAUGUUAUAUA [SSArgA.I] | 410 | 343 | 264 | 479 | 246
18 | AUAUACCAGUGAUGUUGGUAUACUAUCGAUACCAGUAGAUACCAAUACCCUUGGCAGCGAUAAGACCGUACUGUAGCCAGUACUU [Theo A SS t4] | 250 | 191 | 255 | 340 | 225
19 | GGGUCUGCUCGAAGGAGCGCCCUGACAGGUUGCUGCCGUGGGCAGUGAUGUUGCUCAGUCCGGCAGGUAGGUCGCGAGCAGACCC | 109 | 118 | 102 | 89.8 | 105
20 | UUAUCUAUAUUCGAUACCAGUACCCUUUGUGUUGAUCCUUUUAUCAGUGAUGUUGAUGUGUACCCUUGGCAGCGGGUAUGGGUUU [KL-XTheo-B16] | 384 | 370 | 425 | 556 | 279
21 | AUUUAUUCGAGUGAUGUUCGUGUUUUUUCAGAGGAUAUGCGUAAUAGCAGAAGGCUGUUUUAUAUUAUAUUUUGAUUUUUUUAAA [JR_Nu_ExcFMNA_Sub025] | 92.2 | 123 | 86.1 | 106 | 73.5
22 | UCGACAGUGAACGAUACCAGCGUCACGUGGCUGGUGGUCACAUGAGUGAUGUUCAUGUAACGCCCUUGGCAGCGUGCACGUAUCC [KL-XTheo-B9] | 234 | 206 | 220 | 199 | 199

Row | Sequence | apparent KD of K4 kissing-loop reporter (input ligand: FMN 200 uM) [nM] | apparent KD of K4 kissing-loop reporter (input ligand: arginine 13.2 mM) [nM] | apparent KD of K4 kissing-loop reporter (input ligand: none) [nM] | apparent KD of K4 kissing-loop reporter [1] [nM] | apparent KD of K4 kissing-loop reporter [2] [nM]
23 | GGUUCCUCAGUGAUGUUGAGGUGACCUCGGCAGGAUAUAGGCAUUACUAGAAGGGCCAAAAGAACCCUGUCCAGCGACACAGGGU [Inatinar] | 157 | 304 | 310 | 259 | 265
24 | GAUUGUGAUGGAAACAUCGCAAUCUCUGAAGGAGCGCGUGAAAACGCAGGUAGGUCGCAGGACGACUUUGACAGUGAUGUUGUCG [Ex Arginine A K4 4] | 186 | 223 | 201 | 216 | 180
25 | AAGUGUGUGGCGGCCGCCACUAGAAUCCAGUGAUGUUGGAAUAAUCAAAUAAAUAAUAAUAAACAUAGGACCGGGCCAUAUAGAA [Same State - Tryptophan B (Freestyle 1)] | 145 | 140 | 145 | 157 | 139
26 | CGGAUGUAGUGAUGUUAUAUUAGAUGUAGACGAGGACCGGUACGGCCGCCACUCGUGAUGGCUGCUAGCACGUUUCGAGGUUUGC [ExTryptoA.Cp] | 515 | 624 | 604 | 438 | 489
27 | UUAGAUCAAAGAUCAGUCUUAUCAAGAGCACGAGGACCGGUACGGCCGCCACUCGAGUGAUGUUCGAGAGCUCUUGUGACAAAUU [AK2 EXC Tryptophan A] | 148 | 129 | 157 | 154 | 219
28 | UAGUCCUAGUGAUCCUUAUCAAGUGGUGGGCGAGGACCGGUACGGCCGCCACUCGAAUAUGCAGUGAUGUUGUAAUCCGGACAAU [Exclusion - Tryptophan A (Freestyle 11)] | 897 | 906 | 852 | 899 | 580
29 | CACGAUGAAUUCUCUAGGAGUGAUGUUUUUCGAGGACCGGUACGGCCGCCACUCGGACGACGAGCGUGGUAGCGGGCUGAAGACU [iuullin] | 521 | 205 | 1120 | 674 | 771
30 | UGACAUUGCUCAGAUACCAGACUUGAGGAUCACCCAGGUGCCAAAUAAACGUACAUAAAAGUCCCUUGGCAGCUGAGCAAUGUCU [TheoBX 11] | 64.8 | 24 | 55.9 | 85.8 | 76.5
31 | UUUAUAGUGACGGCCGCCACUAUAUUAAUGUUUAGGUUAGAGUGAUGUUUUGAUUAAUAUUUUUAUAGGACCGGGUUAUAUGUUU [ggbvmullin] | 669 | 488 | 632 | 515 | 591
32 | UUAGAGAUCUCAGGAUAUCAGUGAUGUUGUGAUCCAGAUCUGAGAUAGAAUUCUAUCUCAGAUCAAUGAGAAGGGAGAUCUCAUU [AK4.3 Exc FMN B] | 721 | 1200 | 1490 | 878 | 1090
33 | GGAUAGGAUAGAGGAUAUGGGCUAGGCAAGAAUAACUUGUCUAGUAAAUCCAUGAGGAGUGAUGUUCCAGAAGGCUGUCCUAUCG [MatMod 2 - Jieux - Exclusion - FMN B] | 286 | 166 | 324 | 182 | 247
34 | AGAAGGUCAAAGACCUUCGUGCACACUGAUACCAGUCGCGAAAGCGACCCUUGGCAGCAGGGCAGUGAUGUUGCCAAGUGCACAA [Omei KL Theo A SS A v2] | 252 | 278 | 267 | 136 | 235
35 | GGGAUGUAGUGAUGUUAUAUUGGAUGUAGACGAGGACCGGUACGGCCGCCACUCGUGAUGGCUGCUAGCACGUUUCGAUGUUUGC [ExTryptoA.Cs] | 410 | 429 | 424 | 433 | 330
36 | UUAGAUGAUUCAUCAAGAUUGAUGAGCAAACGAGGACCGGUACGGCCGCCACUCGAGUGAUGUUCGAGAAGCUCAUCAAUCAAUU [AK4.2 EXC Tryptophan A] | 166 | 120 | 139 | 127 | 370
37 | UUAUAUAAUUAGUCUUUUUUAACAUUAAGUCAGGAUAUCGUAUAUUCGAGAAGGGACACAUGCUAGUGAUGUUAGCUAUUUCUUU [JR_ExcFMNA_Sub017] | 32.4 | 54.7 | 30.7 | 50.1 | 31.5
38 | AGACUUCACCGAAGGAGCGACGUAGCCUAGUGAUGUUAGGCAAGAGAGAAAUCUCUUAAACGUCAGGUAGGUCGCGGUGAAGUCA [Omei KL Arginine B SS C v3] | 262 | 163 | 202 | 227 | 190
39 | GGGCGCGGCGCGGCCGCCACUGGGCCUGGGCGCUCGCUGAGUGAUGUUCGCCGGCGGCUGGGUCGUAGGACCGGGUGCCGGCUGG [BDazzled - #3 SS Tryptophan B] | 610 | 490 | 1270 | 902 | 452
40 | UGUGUUUACCUGACUCAGUGAUGUUGAGAAGGAGCGUGCGAAAGCACAGGUAGGUCGCUCAACCUAAAUUCAGGUGAGCACUAAA [#SwitchBubble 10 #K4Early] | 268 | 234 | 341 | 334 | 277
41 | UGAUAAAGCAGUGAUGUUGCAAGAAAUGAUACCAGUUAAGAAAAGAACCCUUGGCAGCAUAAAGUGCGCUCUAAUGAGUGUGCUU [theophylline a same state] | 141 | 183 | 156 | 231 | 126
42 | GCCGUACGCACGGAUACCAGCACUCGGUGAGUGAUGUUCACGGUGUGGUAUUCACCGGGCUGCCCUUGGCAGCCGUGCGUACGGC | 375 | 301 | 343 | 1280 | 283
43 | GCAUCCUCUGCAGGAUAUCGCGGAGUGAUGUUCCGCGCAUGCCAUAGCGAAAGCUAUGGCAUGCGACGAGAAGGGCAGAGGAUGC | 165 | 124 | 147 | 157 | 138
